Measured values as given in article doi:10.1101/2021.03.25.436804 (bioRxiv, 2021).

B1: 1-32 IgG (antibody, V domains shown)
VH: QVKLVESGGGVVQPGRSLRLSCAGSGFAFDNYAMHWVRQAPGKGLEWVAVISLEGRNKYYAGPAKGRFSISRDNSRNTVHLQMNSLRPEDTAVYFCARDMRYYYDSNGHYRNRYGMDVWGQGTTVIVSS
VL: DIQMTQSPSSLSASVGDSVTITCQASQDINQFVSWYQQKPGKPPKLLIYDASNLESGVPSRFSGSGSGTHFTFTISSLQPDDIATYYCQQYENLFTFGPGTKVDIK

Experiments:
Assay in all cases: BLI
[1] = target: monoFc-tagged NRP2 (human neuropilin 2 residues 23-595, a1a2b1b2) (human) (UniProt O60462)
[2] = target: NRP2 a2b1b2 (human neuropilin 2 residues 145-595, monoFc-tagged) (human) (UniProt O60462)
[3] = target: soluble ectodomain of the HCMV Pentamer (strain Towne) (Human cytomegalovirus strain Towne, UniProt P17176;F5HCH8;P16837;F5HCP3;F5HET4)

Sequence of monoFc-tagged NRP2 (human neuropilin 2 residues 23-595, a1a2b1b2) (human) (O60462 23-595): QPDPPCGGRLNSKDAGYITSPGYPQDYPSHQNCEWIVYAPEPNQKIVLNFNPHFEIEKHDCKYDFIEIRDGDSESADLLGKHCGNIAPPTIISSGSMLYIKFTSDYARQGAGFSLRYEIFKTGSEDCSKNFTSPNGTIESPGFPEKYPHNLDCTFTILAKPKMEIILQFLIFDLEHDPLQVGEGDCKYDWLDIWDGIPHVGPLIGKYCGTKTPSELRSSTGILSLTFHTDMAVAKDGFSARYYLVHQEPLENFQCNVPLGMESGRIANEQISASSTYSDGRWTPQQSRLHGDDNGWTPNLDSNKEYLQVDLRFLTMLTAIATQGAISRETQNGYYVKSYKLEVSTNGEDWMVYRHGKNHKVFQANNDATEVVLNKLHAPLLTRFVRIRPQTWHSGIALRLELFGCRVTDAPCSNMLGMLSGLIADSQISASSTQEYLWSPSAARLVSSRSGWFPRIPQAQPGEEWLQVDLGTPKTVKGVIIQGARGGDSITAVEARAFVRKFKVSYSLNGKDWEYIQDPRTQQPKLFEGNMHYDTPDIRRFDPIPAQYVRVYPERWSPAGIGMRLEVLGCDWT
Sequence of NRP2 a2b1b2 (human neuropilin 2 residues 145-595, monoFc-tagged) (human) (O60462 145-595): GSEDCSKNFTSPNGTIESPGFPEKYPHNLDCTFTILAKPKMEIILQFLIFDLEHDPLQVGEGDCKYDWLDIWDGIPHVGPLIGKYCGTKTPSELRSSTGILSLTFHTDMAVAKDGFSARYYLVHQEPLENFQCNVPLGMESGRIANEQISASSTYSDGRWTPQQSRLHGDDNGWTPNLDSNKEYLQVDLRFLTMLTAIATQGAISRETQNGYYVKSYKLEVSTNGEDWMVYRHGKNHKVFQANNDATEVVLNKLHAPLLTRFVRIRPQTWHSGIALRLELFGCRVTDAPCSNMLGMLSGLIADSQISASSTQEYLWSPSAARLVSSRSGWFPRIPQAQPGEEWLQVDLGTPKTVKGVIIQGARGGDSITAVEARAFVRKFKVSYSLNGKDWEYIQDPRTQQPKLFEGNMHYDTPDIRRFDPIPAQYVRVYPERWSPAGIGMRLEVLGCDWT

Row | Molecule | Kd [1] | Kd [2] | binding result [3]
1 | soluble ectodomain of the HCMV Pentamer (strain Towne) (from UniProt P17176 24-718) (complex) | 2.2 nM | 7.9 nM | –
2 | B1 | – | – | binds
